{
  "source": "paper PMC7432914",
  "about": "“Corynebacterium glutamicum CrtR and Its Orthologs in Actinobacteria: Conserved Function and Application as Genetically Encoded Biosensor for Detection of Geranylgeranyl Pyrophosphate” (International Journal of Molecular Sciences, 2020)",
  "molecules": {"B1": {"name": "C. callunae crtR-mmpl intergenic region (dsDNA)", "DNA 1": "CGCAAGATGCCGGGAAATACGCTCTGAAGAGGGGTTTTCATGGCCTTAAACCTTTATATATGCAAATTGTTAAATTATCCAACAGTGTAAGGTATCCCATTTTCTTAAAAAAAGGGTTAATATCCATCTATGTCCGATCCGCAA", "DNA 2": "TTGCGGATCGGACATAGATGGATATTAACCCTTTTTTTAAGAAAATGGGATACCTTACACTGTTGGATAATTTAACAATTTGCATATATAAAGGTTTAAGGCCATGAAAACCCCTCTTCAGAGCGTATTTCCCGGCATCTTGCG"}, "B2": {"name": "P. nicotinovorans crtR-idi intergenic region (dsDNA)", "DNA 1": "CATACTGCGCCTTCCTCCTGCAACCTGAGTCTTTACAGCAGCCCGAATATTGCTAGACAAGCTAGAAGAAAGGCTACCATGTAGGAAGTTAGGTGTAACATACTCAGCATG", "DNA 2": "CATGCTGAGTATGTTACACCTAACTTCCTACATGGTAGCCTTTCTTCTAGCTTGTCTAGCAATATTCGGGCTGCTGTAAAGACTCAGGTTGCAGGAGGAAGGCGCAGTATG"}},
  "key": {"[1]": {"target": "T1, CrtRPn (CrtR from P. nicotinovorans) (Paenarthrobacter nicotinovorans, UniProt A0ABT9TUN6)", "T1 construct": "gene J2T10_004447; full length, N-terminal His-tag (pET16b) kept, E. coli BL21(DE3), Ni-NTA; gene divergent to idi, not the mmpL-linked paralog", "T1 sequence (A0ABT9TUN6 1-195)": "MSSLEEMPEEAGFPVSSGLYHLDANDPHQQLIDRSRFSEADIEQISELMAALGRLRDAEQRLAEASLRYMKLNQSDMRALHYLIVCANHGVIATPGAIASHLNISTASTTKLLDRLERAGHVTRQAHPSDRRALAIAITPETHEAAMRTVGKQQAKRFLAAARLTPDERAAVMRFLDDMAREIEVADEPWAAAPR", "assay": "EMSA, inhibition of CrtR binding to own crtR promoter DNA", "conditions": "100-650 uM GGPP, 15 min preincubation before DNA; pH 7.5, 10 mM MgCl2, room temperature"}, "[2]": {"target": "T2, CrtRCc (CrtR from C. callunae) (Corynebacterium callunae, UniProt M1UIJ0)", "T2 construct": "gene H924_00295; full length, N-terminal His-tag (pET16b) kept, E. coli BL21(DE3), Ni-NTA", "T2 sequence (M1UIJ0 1-194)": "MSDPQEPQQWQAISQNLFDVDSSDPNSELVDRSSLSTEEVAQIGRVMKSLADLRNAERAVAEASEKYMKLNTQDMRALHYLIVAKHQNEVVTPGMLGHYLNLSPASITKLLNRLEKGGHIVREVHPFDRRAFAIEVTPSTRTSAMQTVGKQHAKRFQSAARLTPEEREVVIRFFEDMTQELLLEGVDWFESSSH", "assay": "EMSA, inhibition of CrtR binding to own crtR promoter DNA and crtE promoter DNA", "conditions": "100-650 uM GGPP, 15 min preincubation before DNA; pH 7.5, 10 mM MgCl2, room temperature"}, "[3]": {"target": "T3, CrtR (CrtRCg) (Corynebacterium glutamicum ATCC 13032) (UniProt Q8NSP1)", "T3 sequence": "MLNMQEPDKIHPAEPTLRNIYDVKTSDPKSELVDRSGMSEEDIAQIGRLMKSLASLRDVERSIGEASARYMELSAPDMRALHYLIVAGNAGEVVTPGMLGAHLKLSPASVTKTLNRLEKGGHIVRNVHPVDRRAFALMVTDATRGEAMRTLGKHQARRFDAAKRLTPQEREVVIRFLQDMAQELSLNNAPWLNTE", "assay": "EMSA", "conditions": "50 mM Tris-HCl pH 7.5, 10% glycerol, 50 mM KCl, 10 mM MgCl2, 0.5 mM EDTA; 20 uL, 30-90 ng DNA, 30 min at room temperature; 78 bp cg2228 upstream fragment …"}, "[4]": {"tested_on": "T4, CrtR ortholog (CrtRPc) (Pseudarthrobacter chlorophenolicus DSM 12829), ORF:f49de8fb", "T4 sequence": "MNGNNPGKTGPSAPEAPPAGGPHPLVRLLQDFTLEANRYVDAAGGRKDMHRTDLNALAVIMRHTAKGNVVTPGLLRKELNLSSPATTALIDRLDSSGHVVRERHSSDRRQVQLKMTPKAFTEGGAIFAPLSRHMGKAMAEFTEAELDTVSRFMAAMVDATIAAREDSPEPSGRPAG", "assay": "EMSA", "conditions": "50 mM Tris-HCl pH 7.5, 10% glycerol, 50 mM KCl, 10 mM MgCl2, 0.5 mM EDTA; 20 uL, 30-90 ng DNA, 30 min at room temperature; 78 bp cg2228 upstream fragment …"}, "CrtR (CrtRCg)": {"target": "T5, CrtR (CrtRCg) (Corynebacterium glutamicum ATCC 13032, UniProt Q8NSP1 1-195)", "T5 sequence": "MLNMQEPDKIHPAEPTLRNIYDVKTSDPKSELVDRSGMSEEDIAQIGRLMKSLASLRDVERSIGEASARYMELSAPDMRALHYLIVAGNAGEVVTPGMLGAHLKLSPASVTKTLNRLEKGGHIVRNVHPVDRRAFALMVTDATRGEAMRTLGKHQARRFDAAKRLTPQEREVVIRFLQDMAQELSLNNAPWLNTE", "assay": "EMSA; strong binding; 50 mM Tris-HCl pH 7.5, 10% glycerol, 50 mM KCl, 10 mM MgCl2, 0.5 mM EDTA; 20 uL, 30-90 ng DNA, 30 min at room temperature; 78 bp cg2228 upstream fragment (negative control) in every sample; GGPP preincubated 15 min", "conditions": "protein: recombinant; tags: N-terminal His-tag (pET16b), not removed; chain copies: 2; blunt"}, "CrtR ortholog (CrtRPn)": {"target": "T6, CrtR ortholog (CrtRPn) (Paenarthrobacter nicotinovorans DSM 420, UniProt A0ABT9TUN6 1-195)", "T6 sequence": "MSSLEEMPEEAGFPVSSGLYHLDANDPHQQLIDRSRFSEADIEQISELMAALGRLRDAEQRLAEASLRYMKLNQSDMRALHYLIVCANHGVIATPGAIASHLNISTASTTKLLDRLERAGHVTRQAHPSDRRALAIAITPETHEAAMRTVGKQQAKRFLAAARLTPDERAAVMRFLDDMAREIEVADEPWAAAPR", "assay": "EMSA; no GGPP; not all DNA shifted; 50 mM Tris-HCl pH 7.5, 10% glycerol, 50 mM KCl, 10 mM MgCl2, 0.5 mM EDTA; 20 uL, 30-90 ng DNA, 30 min at room temperature; 78 bp cg2228 upstream fragment (negative control) in every sample; GGPP preincubated 15 min", "conditions": "protein: recombinant; tags: N-terminal His-tag (pET16b), not removed; chain copies: 2; blunt"}},
  "data": [
    {"molecule": "CC(C)=CCC/C(C)=C/CC/C(C)=C/CC/C(C)=C/COP(=O)(O)OP(=O)(O)O", "note": "[GGPP]", "values": [
      {"measurement": "EMSA, inhibition of CrtR binding to own crtR promoter DNA", "setting": "[1]", "value": "GGPP inhibited the interaction between the tested CrtR proteins and their target DNA"},
      {"measurement": "EMSA, inhibition of CrtR binding to own crtR promoter DNA and crtE promoter DNA", "setting": "[2]", "value": "GGPP inhibited the interaction between the tested CrtR proteins and their target DNA"}
    ]},
    {"molecule": "TGCCTTCCATGCGGATGGTCCACGCGGGACAAAGCGGAGTAGGATTGGTTCCACATTAGACTATCTCCATGATAGAGATAAGTGCCAGTCAAGCTTTTTCAACGGGGGCCTCCGCCGGGGGCTTCCACGGCTGAGCCAGGTAATGCCAAGGCAGCTGAAGTAATATCCCTCAGGGCCTGTGCGCAAAGACGGACGGCCCCACGAACTCCAGGAGGTGACCATGAACGGCAACAATCCGGGCA (double strand) [P. chlorophenolicus crtR-mmpl intergenic region (PcrtR)]", "values": [
      {"measurement": "binding", "setting": "[3]", "value": "binds more weakly"},
      {"measurement": "binding", "setting": "[4]", "value": "binds"}
    ]},
    {"molecule": "B1", "values": [
      {"measurement": "binding result", "setting": "CrtR (CrtRCg)", "value": "binds"}
    ]},
    {"molecule": "B2", "values": [
      {"measurement": "binding result", "setting": "CrtR ortholog (CrtRPn)", "value": "binds"},
      {"measurement": "binding result", "setting": "CrtR (CrtRCg)", "value": "binds"}
    ]}
  ]
}
